# Data from PMC11306256.
# B1: GST-tagged recombinant Xenopus APE1, wild type [Xenopus laevis] / itself (parent)
# chain: MPKRGKKEEVCAAEPQEDGNEPEVKKGKKGAGKAAKEPEPVVLYEDAPDNVTSADGKKYTLKISSWNVDGIRAWIKKQGLNWVREEDPHIMCLQEIKCAEKLLPPDVKDMPEYPHKYWACPDEKEGYSGVAMLCKDKPLNVTYGIGIEEHDKEGRVITAEFDSFFVIAAYIPNSSRGLVRLDYRQRWDVDFRAYLKGLDSKKPLILCGDLNVAHQEIDLKNPKTNKKTPGFTPQERQGFGELLAEGYLDSFRELYPDKPSAYTFWTYMMNARAKNVGWRLDYFVLSKALRPALCDCKIRSKVMGSDHCPITLLMAI
# Variants of: B1
# Test: sucrose density gradient sedimentation, quantified immunoblot (self-association / oligomerization)
# Settings: with itself; fraction #3 (low-mass peak, co-sediments with 75kD Conalbumin); n = 3; parent: 17; read off a plot
row,percent of protein in gradient fraction,Variant
1,23%,chain 1 K25A K26A K33A

# Same assay, conditions: with itself; fraction #7 (high-mass oligomer peak of WT); n = 3; parent: 16; read off a plot
row,percent of protein in gradient fraction,Variant
1,6%,chain 1 K25A K26A K33A
